The record followed here is the Immune Epitope Database (IEDB).

Some results are limits rather than exact numbers.

The target in assay [1] is HLA-B*15:03. The experiment in a line: IEDB peptide-MHC binding, purified MHC/competitive/radioactivity; filed as Kd, often an IC50 or EC50 that approximates it; ≥ and ≤ were set here for values at or beyond the usual limits of such assays.
The target of assay [2] is HLA-A*03:01. The experiment in a line: IEDB peptide-MHC binding, purified MHC/competitive/fluorescence; ≥ and ≤ were set here for values at or beyond the usual limits of such assays.
Assay [3] deals with HLA-A*11:01. The description is as above.
In assay [4] the target is HLA-A*24:02. The assay is described as above.
Assay [5] has as its target HLA-A*03:01. The experiment in a line: IEDB peptide-MHC binding, purified MHC/competitive/fluorescence; filed as Kd, often an IC50 or EC50 that approximates it; ≥ and ≤ were set here for values at or beyond the usual limits of such assays.
The target in assay [6] is HLA-A*31:01. Described as above. The note with it: source organism: Escherichia coli E22.
Assay [7] has as its target HLA-B*15:01. Described as above.
Assay [8] concerns the target HLA-A*30:01. The experiment in a line: IEDB peptide-MHC binding, purified MHC/competitive/radioactivity; filed as Kd, often an IC50 or EC50 that approximates it; ≥ and ≤ were set here for values at or beyond the usual limits of such assays.
Assay [9] has as its target HLA-B*15:01. The assay is described as above.
Assay [10] addresses HLA-B*08:01. Described as above.
The target in assay [11] is HLA-A*32:01. Described as above.
For assay [12], the target named is HLA-B*15:42. The experiment in a line: IEDB peptide-MHC binding, purified MHC/competitive/fluorescence; filed as Kd, often an IC50 or EC50 that approximates it; ≥ and ≤ were set here for values at or beyond the usual limits of such assays.
Assay [13] has as its target HLA-B*83:01. The assay is described as above.
In assay [14] the target is HLA-B*45:06. Described as above.
The target in assay [15] is HLA-A*02:12. The experiment in a line: IEDB peptide-MHC binding, purified MHC/direct/fluorescence; filed as Kd, often an IC50 or EC50 that approximates it; ≥ and ≤ were set here for values at or beyond the usual limits of such assays. The note with it: source organism: Mycobacterium tuberculosis str. Haarlem.
Assay [16] has as its target HLA-A*69:01. Described as above. The conditions noted are these: source organism: Mycobacterium tuberculosis.
The target in assay [17] is HLA-A*02:11. Described as above. The note with it: source organism: Mycobacterium tuberculosis str. Haarlem.
Assay [18] has as its target HLA-A*03:01. The assay is described as above. The conditions noted are these: source organism: Camelpox virus CMS.
The target of assay [19] is HLA-A*11:01. Described as above. The note with it: source organism: Camelpox virus CMS.
In assay [20] the target is HLA-B*51:01. Described as above.
For assay [21], the target named is HLA-B*07:02. The assay is described as above.
The target of assay [22] is HLA-B*46:01. In words: IEDB peptide-MHC binding, purified MHC/competitive/fluorescence; filed as Kd, often an IC50 or EC50 that approximates it; ≥ and ≤ were set here for values at or beyond the usual limits of such assays. The conditions noted are these: source organism: Homo sapiens.
Assay [23] addresses HLA-B*27:03. The description is as above. The note with it: source organism: Homo sapiens.
Assay [24] concerns the target HLA-B*15:17. Described as above. The note with it: source organism: Homo sapiens.
Assay [25] addresses HLA-B*18:01. The description is as above. The note with it: source organism: Homo sapiens.
Assay [26] addresses HLA-B*57:01. The description is as above. The conditions noted are these: source organism: Homo sapiens.
Assay [27] deals with HLA-A*69:01. The description is as above. The conditions noted are these: source organism: Homo sapiens.
The target of assay [28] is HLA-A*26:01. The assay is described as above. The note with it: source organism: Homo sapiens.
Assay [29] addresses HLA-B*39:01. The description is as above. The conditions noted are these: source organism: Homo sapiens.
For assay [30], the target named is HLA-B*51:01. The assay is described as above. The conditions noted are these: source organism: Homo sapiens.
[31] abbreviates: source organism: Vaccinia virus WR.
Setting [32] is: source organism: Zaire ebolavirus.
Setting [33] is: source organism: Escherichia coli E22.
[34] abbreviates: source organism: Mycobacterium tuberculosis variant bovis BCG str. Pasteur 1173P2.
[35] abbreviates: source organism: Vaccinia virus Copenhagen.
Where [36] appears, read: source organism: Vibrio vulnificus.
Where [37] appears, read: source organism: Vaccinia virus.
[38] abbreviates: source organism: Brucella abortus.

Usually Kd stands for the concentration at which binding is half-saturated. AKSKFPRSM: the Kd in [1] (setting [31]) came to 0.261 nM.

Take ALTKNYLSF: in assay [1] (setting [31]), the Kd was found to be 40.1 nM.

One may read the IC50 as the concentration needed to halve the response being measured. A higher IC50 goes with a need for much substance. Regarding DYHKILTAG, the concentration for half-maximal inhibition (IC50) in assay [2] (setting [32]) was at least 164000 nM; in assay [3] (setting [32]), 58500 nM; in [4] (setting [32]), 39900 nM.

In the case of EMFIIKYFK, the values for the Kd in assay [5] (setting [33]), in assay [6] and in [7] (setting [33]) were at least 20000 nM, 394 nM and at least 20000 nM, respectively.

Turning to FKFNSQVSI, the Kd in assay [1] (setting [31]) came out at 1.24 nM.

For the sequence HLYNILNNI, the equilibrium dissociation constant (Kd) was determined as 1450 nM in [8] (setting [31]); 1480 nM in assay [9] (setting [31]); 1970 nM in [10] (setting [31]); 72.6 nM in [11] (setting [31]); 1400 nM in [1] (setting [31]).

For HPVTATISF, the dissociation constant Kd in [12] (setting [34]) is at least 5000 nM; in [13] (setting [34]), 616 nM; in [14] (setting [34]), at least 5000 nM.

In assay [5] (source organism: Shigella sonnei Ss046), IMYPSPNGH displayed a Kd of 7.7 nM.

Regarding ITHPKYRKK, in assay [5] (source organism: Vibrio antiquarius), the dissociation constant Kd was at least 20000 nM.

As to KSVEDVSAF, the Kd in assay [1] (setting [31]) was 13.6 nM.

Consider KTLKYSNKI, for which the Kd in [8] (setting [31]) is 37.5 nM; in assay [9] (setting [31]) it was 123 nM; in assay [10] (setting [31]), 1180 nM; in assay [11] (setting [31]), 1.9 nM; in assay [1] (setting [31]) it was 448 nM.

Turning to LIPFLILFI, the Kd in assay [8] (setting [35]) was 97 nM; in assay [9] (setting [35]), 471 nM; in assay [10] (setting [35]) it was 49.7 nM; in assay [11] (setting [35]), 12100 nM; in [1] (setting [35]), 195 nM.

For LLDEGKQSL, the dissociation constant Kd in assay [15] was 4 nM; in assay [16], 7000 nM; in [17], 4 nM.

Take LMMTATGEY: the Kd in assay [5] (source organism: Escherichia coli B7A) worked out at 1780 nM.

Turning to LMYPTTLLK, the dissociation constant (Kd) is at least 5000 nM in assay [12] (setting [31]); at least 5000 nM in assay [13] (setting [31]); at least 5000 nM in assay [14] (setting [31]); 4.5 nM in assay [18]; 2.2 nM in assay [19].

LPDLPTTTI: the Kd in [20] (source organism: Staphylococcus aureus) is 922 nM.

LTGGTGVGK: the IC50 came out at 5750 nM in [2] (source organism: Variola virus), 998 nM in assay [3] (source organism: Variola virus) and 38800 nM in assay [4] (source organism: Variola virus).

NAFGWENAY: the equilibrium dissociation constant (Kd) in [7] (source organism: Vibrio vulnificus YJ016) was 1320 nM; in assay [21] (setting [36]), 350 nM; in [20] (setting [36]) it was at least 20000 nM.

In the case of NKFFEVIFF, the Kd in [1] (setting [31]) amounted to 18.8 nM.

Take NLQPPALSK: the Kd in [5] (source organism: Rickettsia sibirica 246) turned out to be 430 nM.

In the case of QTIVFIWFI, the Kd in [8] (setting [37]) is 6240 nM; in assay [9] (setting [37]) it was 253 nM; in [10] (setting [37]), 16900 nM; in assay [11] (setting [37]), 1760 nM; in assay [1] (setting [37]) it was 1030 nM.

For RPNPDFNTF, the dissociation constant Kd in [7] (source organism: Brucella melitensis bv. 1 str. 16M) is 3000 nM; in assay [21] (setting [38]), 12.6 nM; in assay [20] (setting [38]) it was at least 20000 nM.

In the case of RQSSCKMAL, the Kd in assay [1] (setting [31]) was found to be 18.8 nM.

For SLGDPLHQA, the Kd in [22], in assay [23], in assay [24], in assay [25], in assay [26] and in assay [27] was at least 20000 nM each time. Also, the Kd in assay [7] (source organism: Homo sapiens), in [28], in assay [29] and in assay [30] was at least 20000 nM each time.

SPGIRPRFL: the Kd turned out to be 8430 nM in assay [8] (setting [35]); 1920 nM in [9] (setting [35]); 55.8 nM in assay [10] (setting [35]); 2810 nM in [11] (setting [35]); 10300 nM in assay [1] (setting [35]).

SQVSSTELF: the equilibrium dissociation constant (Kd) in [1] (setting [31]) turned out to be 1.83 nM.

SVFESWLEK: the dissociation constant (Kd) in [5] (setting [33]) stood at 211 nM.

With VSFSPSLTF, the Kd in [9] (setting [35]) was determined as 1.26 nM; in assay [11] (setting [35]) it was 736 nM; in [1] (setting [35]), 1.22 nM.

VTRFESLK came in with a Kd in assay [5] (source organism: Influenza A virus (A/Swine/Minnesota/55551/2000(H1N2))) of at least 20000 nM.
